The test system of assay [1] is H929 cells. The assay is described as follows: In vitro sensitivity to abraxane and bortezumib. The class given is cell-based. To be noted: Homo sapiens, NCI-H929. As to the method:
The sensitivity of H929 and U266B cells to abraxane and bortezumib (BTZ) was measured in vitro.

The subject of another assay is HUT-102. The assay is described as follows: WST assay of immunotoxin activity. In kind it is cell-based. The protocol:
(§1) The activity of the anti-BCMA immunotoxins against BCMA-expressing cell lines and cells from four multiple myeloma patients was tested by WST assay.

The next assay deals with KMS-18. The assay is described as follows: WST assay of immunotoxin activity. The class given is cell-based. The protocol:
as §1

The next assay has as its system LP-1. The assay is described as follows: WST assay of immunotoxin activity. The class given is cell-based. As to the method:
as §1

The next assay concerns U266B. The assay is described as follows: WST assay of immunotoxin activity. The class given is cell-based. As to the method: as §1
In another assay the test system is JJN-3. The assay is described as follows: WST assay of immunotoxin activity. The class given is cell-based. The protocol: as §1
For another assay, the system named is H929. The assay is described as follows: WST assay of immunotoxin activity. In kind it is cell-based. The protocol:
as §1

In another assay the test system is Jeko-1. The assay is described as follows: WST assay of immunotoxin activity. In kind it is cell-based. The protocol:
as §1

Another assay relates to RPMI-8226. The assay is described as follows: WST assay of immunotoxin activity. In kind it is cell-based. As to the method: as §1
The test system of assay [2] is H929 cells. The assay is described as follows: Cell viability by flow cytometry (Annexin V/7AAD staining) after various exposure durations. The class given is cell-based. As to conditions: viability after 3 days. As to the method:
H929 cells were exposed to LMB70 for various durations. Cell viability was analyzed after 3 days by flow cytometry (Annexin V/7AAD staining).
H929 cells were exposed to 2 ng/ml LMB70 for various lengths of time from 10 minutes up to 72 hours. Cell viability was analyzed after 3 days by flow cytometry (Annexin V/7AAD staining).

In a further assay the test system is BCMA-positive H929 cells. The experiment in a line: Cell killing at fixed dose, trypan blue staining after timed exposure. The class given is cell-based. To be noted: H929, 100 ng/ml. The protocol: Cell killing activity was measured by trypan blue staining of cells taken at various time points (days) after exposure to the immunotoxin.
The test system of assay [3] is H929 cells. The assay is described as follows: WST-8 assay of AF647-labeled and unlabeled LMB70. The class given is cell-based. To be noted: in ng/mL. The protocol: (§2) LMB70 was labeled with AF647 for measurement of uptake in vivo. LMB70 was labeled twice with AF647 using an AF647 labeling kit (Life Technologies). Labeling efficacy and activity were measured by WST-8 assay and affinity measurement.
On the technique in general: Tetrazolium assays rely on reduction of a dye to a coloured formazan, in cell work by metabolically active cells.

Assay [4] concerns H929 cells. The experiment in a line: Cell viability and cell density at varying LMB70 concentrations. In kind it is cell-based. To be noted: 2 hours or 6 hours exposure. As to the method:
H929 cells were exposed to 2, 10, and 100 ng/ml LMB70 for 2 hours or 6 hours. Cell viability and cell density were analyzed.

Another assay addresses T1, BCMA (Homo sapiens, UniProt Q02223).
T1 sequence (Q02223 1-184): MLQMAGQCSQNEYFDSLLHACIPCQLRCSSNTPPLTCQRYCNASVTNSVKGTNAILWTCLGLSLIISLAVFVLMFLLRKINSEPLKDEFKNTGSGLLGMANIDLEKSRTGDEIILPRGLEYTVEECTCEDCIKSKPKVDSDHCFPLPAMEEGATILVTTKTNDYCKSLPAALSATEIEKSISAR
The experiment in a line: Affinity measurement of AF647-labeled and unlabeled LMB70. In kind it is binding. As to conditions: after the first labeling. As to the method: as §2

In the next assay the test system is MM-2 cells from patient. The assay is described as follows: WST assay, cells from multiple myeloma patient. The class given is cell-based, human. As to conditions: cells from patient MM-2. As to the method:
as §1

Another assay relates to MM-4 cells from patient. The assay is described as follows: WST assay, cells from multiple myeloma patient. The class given is cell-based, human. To be noted: cells from patient MM-4. The protocol: as §1
For a further assay, the system named is MM-1 cells from patient. The assay is described as follows: WST assay, cells from multiple myeloma patient. As to conditions: cells from patient MM-1. In kind it is cell-based, human. As to the method: as §1
The test system of another assay is MM-3 cells from patient. The experiment in a line: WST assay, cells from multiple myeloma patient. As to conditions: cells from patient MM-3. The class given is cell-based, human. As to the method:
as §1

In assay [5] the test system is H929 cells. The experiment in a line: Cell viability by trypan blue staining after 20 minute exposure. In kind it is cell-based. To be noted: 100 ng/ml for 20 minutes. As to the method:
H929 cells were exposed to 100 ng/ml LMB70 for 20 minutes. Cell viability was analyzed with trypan blue staining.

For another assay, the system named is H929 xenograft tumors. The assay is described as follows: Antitumor activity in mice with H929 xenograft tumors. The class given is in vivo. To be noted: 1.5 mg/kg QODX5, SCID mice. The protocol:
To test the in vivo efficacy of LMB38 and LMB70, tumors were grown in SCID mice using the most sensitive cell line H929. Based on the previous toxicity data, 1.5 mg/kg QODX5 doses were used on 5 mice in each group. […] However, the tumors grew back once the treatment was finished.

The term IC50 denotes the point on the concentration scale where inhibition reaches its midpoint.

Bounds are passed on as bounds.

Regarding `CC(C)C[C@H](NC(=O)[C@H](Cc1ccccc1)NC(=O)c1cnccn1)B(O)O` [BTZ, bortezomib], in the assay with H929 cells [1], the IC50 was found to be 4 nM.

B1: LMB70: anti-BCMA immunotoxin BM306-Fab-LR-GGS (conjugate)
VH: EVQLQQSGPELVKPGASVKISCKTSGYTFTEYTINWVKQSHGKSLEWIGDIYPDNYNIRYNQKFKGKATLTVDKSSSTAYMELRSLSSEDSAIYYCANHDFFVFWGQGTLVTVSA
VL: DIQMTQATSSLSASLGDRVTINCRTSQDISNHLNWYQQKPDGTVKLLIYYTSRLQSGVPSRFSGSGSGTDYSLTISNLEQEDIGTYFCHQGNTLPPTFGGGTKLEIK
modifications: left off: another chain or arm of the molecule; a dimerising Fc or GST; small tags and cut ends
notes: anti-BCMA immunotoxin BM306-Fab-LR-GGS
B1: the “IC50” value was over 0.1 µg/mL with HUT-102; 0.065 µg/mL with KMS-18; 0.02 µg/mL in the assay with LP-1; 0.005 µg/mL in the assay with U266B; 0.004 µg/mL in the assay on JJN-3; 0.0011 µg/mL with H929. The “IC50” value in the assay on Jeko-1 is over 0.1 µg/mL; with RPMI-8226 it was 0.0051 µg/mL; in the assay with MM-2 cells from patient, 0.017 µg/mL; in the assay on MM-4 cells from patient it was 0.0179 µg/mL; in the assay with MM-1 cells from patient it was 0.0004 µg/mL; with MM-3 cells from patient, 0.0023 µg/mL. In addition, the cell death entry with H929 cells [2] (2 ng/ml, even after 24 hours of exposure) is “did not die”. Further, the “exposure time sufficient to kill cells” value in the assay with H929 cells [2] (100 ng/ml) is at most 10 min. For the same molecule, the Percent dead in the assay with BCMA-positive H929 cells (2 hr exposure, D-1) worked out at 43%; with BCMA-positive H929 cells (2 hr exposure, D-2) it was 88%; in the assay with BCMA-positive H929 cells (2 hr exposure, D-5), 100%; with BCMA-positive H929 cells (2 hr exposure, D-7), 100%; in the assay on BCMA-positive H929 cells (4 hr exposure, D-1) it was 44%; with BCMA-positive H929 cells (4 hr exposure, D-2), 89%. The Percent dead in the assay with BCMA-positive H929 cells (4 hr exposure, D-5) is 100%; in the assay on BCMA-positive H929 cells (4 hr exposure, D-7), 100%; with BCMA-positive H929 cells (6 hr exposure, D-1), 42%; in the assay with BCMA-positive H929 cells (6 hr exposure, D-2), 88%; in the assay with BCMA-positive H929 cells (6 hr exposure, D-5), 100%; with BCMA-positive H929 cells (6 hr exposure, D-7), 100%. Also, the Percent dead in the assay on BCMA-positive H929 cells (24 hr exposure, D-1) turned out to be 51%; with BCMA-positive H929 cells (24 hr exposure, D-2) it was 95%; in the assay on BCMA-positive H929 cells (24 hr exposure, D-5), 100%; in the assay with BCMA-positive H929 cells (24 hr exposure, D-7), 100%. For the same molecule, the “IC50 (WST-8)” value with H929 cells [3] (after the first labeling) is recorded as 1.532; in the assay with H929 cells [3] (after the second labeling), 2.758. Also, the “effect on cell viability and growth” value in the assay on H929 cells [4] (2 ng/ml) is “slight growth inhibition, but no cell killing”; with H929 cells [4] (10 ng/ml), “not enough to kill all cells”. Besides, the “Bmax (affinity measurement)” value in the assay with BCMA came out at 2220. Further, in the assay on H929 cells [5], the “time after exposure at which cells started to die” value came to 24 h. Besides, the “time after which all cells were dead” value in the assay on H929 cells [5] amounted to 3 days. Moreover, the “tumor growth compared to PBS-treated mice” value in the assay on H929 xenograft tumors was “delayed”. Further, the “tumors once the treatment was finished” value in the assay on H929 xenograft tumors is recorded as “grew back”.

Values taken from patent US10925969B2, “Anti-BCMA polypeptides and proteins” (priority 2015, dated 2021).
